Read-outs that look alike come from different tables or passages of the source.
Assays:
human ROR1 protein [1] = target: T1, human ROR1 protein (human, UniProt Q01973 30-937); test: flow cytometry, Alexa-647-4A5 against IgG2b isotype control, ZAP-70-negative CLL cases (N=36)
T1 construct: Full-length ROR1 on CHO-ROR1 transfectants, CLL cells, tumour cell lines and tissues, or in their lysates (immunoprecipitation, immunoblot); also called CHO-ROR1 (CHO cells transfected to express human ROR1); ROR1 on CLL cells
T1 sequence (Q01973 30-937 limits assumed): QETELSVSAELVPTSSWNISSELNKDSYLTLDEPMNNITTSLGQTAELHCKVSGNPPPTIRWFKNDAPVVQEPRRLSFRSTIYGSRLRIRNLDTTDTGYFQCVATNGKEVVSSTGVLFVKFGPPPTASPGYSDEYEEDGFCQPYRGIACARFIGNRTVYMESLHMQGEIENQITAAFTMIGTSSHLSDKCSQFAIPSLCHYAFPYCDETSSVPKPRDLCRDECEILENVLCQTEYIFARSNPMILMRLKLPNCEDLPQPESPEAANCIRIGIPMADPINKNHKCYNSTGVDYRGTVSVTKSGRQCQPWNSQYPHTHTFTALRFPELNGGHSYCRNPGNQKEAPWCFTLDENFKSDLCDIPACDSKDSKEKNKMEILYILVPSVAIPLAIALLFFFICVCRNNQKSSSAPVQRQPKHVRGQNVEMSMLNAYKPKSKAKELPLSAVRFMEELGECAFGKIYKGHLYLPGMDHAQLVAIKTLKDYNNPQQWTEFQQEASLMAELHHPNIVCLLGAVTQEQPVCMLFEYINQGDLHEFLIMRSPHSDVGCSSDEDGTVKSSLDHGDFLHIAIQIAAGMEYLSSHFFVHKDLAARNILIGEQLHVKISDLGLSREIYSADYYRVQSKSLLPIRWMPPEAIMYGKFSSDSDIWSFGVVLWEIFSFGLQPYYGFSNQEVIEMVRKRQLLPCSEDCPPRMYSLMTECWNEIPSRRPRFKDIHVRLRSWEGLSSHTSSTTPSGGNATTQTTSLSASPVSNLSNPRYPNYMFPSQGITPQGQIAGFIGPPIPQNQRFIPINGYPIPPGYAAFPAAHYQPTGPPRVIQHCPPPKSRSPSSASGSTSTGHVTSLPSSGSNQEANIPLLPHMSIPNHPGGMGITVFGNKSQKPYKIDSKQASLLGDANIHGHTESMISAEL

human ROR1 protein [2] = target: T1, human ROR1 protein
human ROR1 protein [3] = target: T1, human ROR1 protein; test: flow cytometry on CD5-negative, CD10+, CD19+ marrow B lymphocyte precursors (N=9 samples)
human ROR1 protein [4] = target: T1, human ROR1 protein; test: flow cytometry, Alexa-647-4A5 against IgG2b isotype control, ZAP-70-positive CLL cases (N=33)

B1: 4A5 anti-ROR1 mAb (antibody, V domains shown)
VH: EVKLVESGGGLVKPGGSLKLSCAASGFTFSSYAMSWVRQIPEKRLEWVASISRGGTTYYPDSVKGRFTISRDNVRNILYLQMSSLRSEDTAMYYCGRYDYDGYYAMDYWGQGTSVTVSS
VL: DIKMTQSPSSMYASLGERVTITCKASPDINSYLSWFQQKPGKSPKTLIYRANRLVDGVPSRFSGGGSGQDYSLTINSLEYEDMGIYYCLQYDEFPYTFGGGTKLEMK
average MFIR (human ROR1 protein [1]): 12.4 ratio | median MFIR (human ROR1 protein [1]): 12 ratio | MFI ratio (MFIR) (human ROR1 protein [2]): 10 ratio | MFI ratio (MFIR) (human ROR1 protein [3]): 6.3 ratio | average MFIR (human ROR1 protein [4]): 12 ratio | median MFIR (human ROR1 protein [4]): 12.2 ratio
